According to US20140087995A1 (published 2014):
Numbered stars: 1 amine (or outer) side, 2 acyl side, 3 side chain; on linkers, the order of the positions; unused ones are H or OH. Bridge positions count the residues as written; N and C are the ends. Side chains are listed from the residue outwards. Ends that are not written are not given here. * marks the point of attachment. C20 diacid = O=C(O)CCCCCCCCCCCCCCCCCCC(=O)*; γGlu = O=C(O)[C@H](CCC(=O)[*:2])N[*:1]; AEEA = NCCOCCOCC(=O)O

T1: human amylin receptor (amylin 3(a) receptor: human calcitonin receptor co-expressed with RAMP-3) (human, UniProt P30988 25-474; O60896 24-148, limits assumed)
T1 sequence (looked up) 1: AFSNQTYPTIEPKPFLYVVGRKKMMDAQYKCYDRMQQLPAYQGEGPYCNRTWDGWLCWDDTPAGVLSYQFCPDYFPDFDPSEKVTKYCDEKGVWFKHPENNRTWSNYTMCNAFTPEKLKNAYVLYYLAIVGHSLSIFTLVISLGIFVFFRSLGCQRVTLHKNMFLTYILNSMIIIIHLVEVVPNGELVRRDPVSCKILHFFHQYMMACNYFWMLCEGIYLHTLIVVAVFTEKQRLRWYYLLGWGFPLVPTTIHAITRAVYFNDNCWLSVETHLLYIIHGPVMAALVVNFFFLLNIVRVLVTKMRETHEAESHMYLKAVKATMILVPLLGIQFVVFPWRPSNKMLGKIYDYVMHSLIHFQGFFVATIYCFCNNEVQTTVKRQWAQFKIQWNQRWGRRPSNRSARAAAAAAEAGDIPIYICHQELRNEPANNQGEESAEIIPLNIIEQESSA
T1 sequence (looked up) 2: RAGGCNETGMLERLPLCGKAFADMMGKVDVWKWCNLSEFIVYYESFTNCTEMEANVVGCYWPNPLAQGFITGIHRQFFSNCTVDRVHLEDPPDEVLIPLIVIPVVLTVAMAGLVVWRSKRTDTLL

T2: human calcitonin receptor (human, UniProt P30988 25-474)
T2 sequence (looked up): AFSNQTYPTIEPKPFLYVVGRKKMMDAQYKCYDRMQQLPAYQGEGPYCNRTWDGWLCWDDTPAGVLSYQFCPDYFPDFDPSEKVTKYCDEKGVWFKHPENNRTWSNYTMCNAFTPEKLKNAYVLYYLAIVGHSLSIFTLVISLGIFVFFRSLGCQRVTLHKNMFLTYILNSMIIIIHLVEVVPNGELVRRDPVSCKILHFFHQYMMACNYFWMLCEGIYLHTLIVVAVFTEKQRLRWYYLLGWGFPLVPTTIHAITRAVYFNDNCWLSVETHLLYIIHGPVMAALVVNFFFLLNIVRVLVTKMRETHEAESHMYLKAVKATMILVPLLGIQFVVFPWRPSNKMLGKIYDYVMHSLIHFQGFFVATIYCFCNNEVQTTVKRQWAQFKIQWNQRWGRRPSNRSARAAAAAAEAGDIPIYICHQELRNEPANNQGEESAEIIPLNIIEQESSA


Tests used:
[1] = molecular target: T1, human amylin receptor (amylin 3(a) …); experiment: cell-based or functional assay
[2] = molecular target: T2, human calcitonin receptor; experiment: cell-based or functional assay

Binder | hAmylin-R funct. EC50 [1] [pM] | hCTR funct. EC50 [2] [nM] | Ratio hCT/hAmylin funct. [1]
K([AEEA-γGlu-C20 diacid])CNTATCATQRLATFLRHSSPNFGAIPSSTPVGSNTY-NH2 (disulfide 2-7; N-terminus assumed; SMILES CC[C@H](C)[C@H](NC(=O)[C@H](C)NC(=O)CNC(=O)[C@H](Cc1ccccc1)NC(=O)[C@H](CC(N)=O)NC(=O)[C@@H]1CCCN1C(=O)[C@H](CO)NC(=O)[C@H](CO)NC(=O)[C@H](Cc1c[nH]cn1)NC(=O)[C@H](CCCNC(=N)N)NC(=O)[C@H](CC(C)C)NC(=O)[C@H](Cc1ccccc1)NC(=O)[C@@H](NC(=O)[C@H](C)NC(=O)[C@H](CC(C)C)NC(=O)[C@H](CCCNC(=N)N)NC(=O)[C@H](CCC(N)=O)NC(=O)[C@@H](NC(=O)[C@H](C)NC(=O)[C@@H]1CSSC[C@H](NC(=O)[C@@H](N)CCCCNC(=O)COCCOCCNC(=O)CC[C@H](NC(=O)CCCCCCCCCCCCCCCCCCC(=O)O)C(=O)O)C(=O)N[C@@H](CC(N)=O)C(=O)N[C@@H]([C@@H](C)O)C(=O)N[C@@H](C)C(=O)N[C@@H]([C@@H](C)O)C(=O)N1)[C@@H](C)O)[C@@H](C)O)C(=O)N1CCC[C@H]1C(=O)N[C@@H](CO)C(=O)N[C@@H](CO)C(=O)N[C@H](C(=O)N1CCC[C@H]1C(=O)N[C@H](C(=O)NCC(=O)N[C@@H](CO)C(=O)N[C@@H](CC(N)=O)C(=O)N[C@H](C(=O)N[C@@H](Cc1ccc(O)cc1)C(N)=O)[C@@H](C)O)C(C)C)[C@@H](C)O, also called compound 75) | 296 | 9.07 | –
K([γGlu-C20 diacid])CNTATCATQRLARFLRHSSPNFGAIPSSTNVGSNTY-NH2 (disulfide 2-7; N-terminus assumed; SMILES CC[C@H](C)[C@H](NC(=O)[C@H](C)NC(=O)CNC(=O)[C@H](Cc1ccccc1)NC(=O)[C@H](CC(N)=O)NC(=O)[C@@H]1CCCN1C(=O)[C@H](CO)NC(=O)[C@H](CO)NC(=O)[C@H](Cc1c[nH]cn1)NC(=O)[C@H](CCCNC(=N)N)NC(=O)[C@H](CC(C)C)NC(=O)[C@H](Cc1ccccc1)NC(=O)[C@H](CCCNC(=N)N)NC(=O)[C@H](C)NC(=O)[C@H](CC(C)C)NC(=O)[C@H](CCCNC(=N)N)NC(=O)[C@H](CCC(N)=O)NC(=O)[C@@H](NC(=O)[C@H](C)NC(=O)[C@@H]1CSSC[C@H](NC(=O)[C@@H](N)CCCCNC(=O)CC[C@H](NC(=O)CCCCCCCCCCCCCCCCCCC(=O)O)C(=O)O)C(=O)N[C@@H](CC(N)=O)C(=O)N[C@@H]([C@@H](C)O)C(=O)N[C@@H](C)C(=O)N[C@@H]([C@@H](C)O)C(=O)N1)[C@@H](C)O)C(=O)N1CCC[C@H]1C(=O)N[C@@H](CO)C(=O)N[C@@H](CO)C(=O)N[C@H](C(=O)N[C@@H](CC(N)=O)C(=O)N[C@H](C(=O)NCC(=O)N[C@@H](CO)C(=O)N[C@@H](CC(N)=O)C(=O)N[C@H](C(=O)N[C@@H](Cc1ccc(O)cc1)C(N)=O)[C@@H](C)O)C(C)C)[C@@H](C)O, also called compound 83) [N^ε1-[(4S)-4-carboxy-4-(19-carboxynonadecanoylamino)butanoyl]-[Arg14,Arg17,Pro21,Pro27]-h-amylin] | 405 | 16.8 | 41.6
K([γGlu-C20 diacid])CNTATCATQRLARFLRHSSPNFGAIPSSTNVGPNTY-NH2 (disulfide 2-7; N-terminus assumed; SMILES CC[C@H](C)[C@H](NC(=O)[C@H](C)NC(=O)CNC(=O)[C@H](Cc1ccccc1)NC(=O)[C@H](CC(N)=O)NC(=O)[C@@H]1CCCN1C(=O)[C@H](CO)NC(=O)[C@H](CO)NC(=O)[C@H](Cc1c[nH]cn1)NC(=O)[C@H](CCCNC(=N)N)NC(=O)[C@H](CC(C)C)NC(=O)[C@H](Cc1ccccc1)NC(=O)[C@H](CCCNC(=N)N)NC(=O)[C@H](C)NC(=O)[C@H](CC(C)C)NC(=O)[C@H](CCCNC(=N)N)NC(=O)[C@H](CCC(N)=O)NC(=O)[C@@H](NC(=O)[C@H](C)NC(=O)[C@@H]1CSSC[C@H](NC(=O)[C@@H](N)CCCCNC(=O)CC[C@H](NC(=O)CCCCCCCCCCCCCCCCCCC(=O)O)C(=O)O)C(=O)N[C@@H](CC(N)=O)C(=O)N[C@@H]([C@@H](C)O)C(=O)N[C@@H](C)C(=O)N[C@@H]([C@@H](C)O)C(=O)N1)[C@@H](C)O)C(=O)N1CCC[C@H]1C(=O)N[C@@H](CO)C(=O)N[C@@H](CO)C(=O)N[C@H](C(=O)N[C@@H](CC(N)=O)C(=O)N[C@H](C(=O)NCC(=O)N1CCC[C@H]1C(=O)N[C@@H](CC(N)=O)C(=O)N[C@H](C(=O)N[C@@H](Cc1ccc(O)cc1)C(N)=O)[C@@H](C)O)C(C)C)[C@@H](C)O, also called compound 65) | 242 | 9.33 | –
K([γGlu-C20 diacid])CNTATCATQRLARFLRHSSPNFGAIPSSTPVGSNTY-NH2 (disulfide 2-7; N-terminus assumed; SMILES CC[C@H](C)[C@H](NC(=O)[C@H](C)NC(=O)CNC(=O)[C@H](Cc1ccccc1)NC(=O)[C@H](CC(N)=O)NC(=O)[C@@H]1CCCN1C(=O)[C@H](CO)NC(=O)[C@H](CO)NC(=O)[C@H](Cc1c[nH]cn1)NC(=O)[C@H](CCCNC(=N)N)NC(=O)[C@H](CC(C)C)NC(=O)[C@H](Cc1ccccc1)NC(=O)[C@H](CCCNC(=N)N)NC(=O)[C@H](C)NC(=O)[C@H](CC(C)C)NC(=O)[C@H](CCCNC(=N)N)NC(=O)[C@H](CCC(N)=O)NC(=O)[C@@H](NC(=O)[C@H](C)NC(=O)[C@@H]1CSSC[C@H](NC(=O)[C@@H](N)CCCCNC(=O)CC[C@H](NC(=O)CCCCCCCCCCCCCCCCCCC(=O)O)C(=O)O)C(=O)N[C@@H](CC(N)=O)C(=O)N[C@@H]([C@@H](C)O)C(=O)N[C@@H](C)C(=O)N[C@@H]([C@@H](C)O)C(=O)N1)[C@@H](C)O)C(=O)N1CCC[C@H]1C(=O)N[C@@H](CO)C(=O)N[C@@H](CO)C(=O)N[C@H](C(=O)N1CCC[C@H]1C(=O)N[C@H](C(=O)NCC(=O)N[C@@H](CO)C(=O)N[C@@H](CC(N)=O)C(=O)N[C@H](C(=O)N[C@@H](Cc1ccc(O)cc1)C(N)=O)[C@@H](C)O)C(C)C)[C@@H](C)O, also called compound 63) | 37 | 5.13 | –
K([γGlu-C20 diacid])CNTATCATQRLAAFLRHSSPNFGAIPSSTNVGHNTY-NH2 (disulfide 2-7; N-terminus assumed; SMILES CC[C@H](C)[C@H](NC(=O)[C@H](C)NC(=O)CNC(=O)[C@H](Cc1ccccc1)NC(=O)[C@H](CC(N)=O)NC(=O)[C@@H]1CCCN1C(=O)[C@H](CO)NC(=O)[C@H](CO)NC(=O)[C@H](Cc1c[nH]cn1)NC(=O)[C@H](CCCNC(=N)N)NC(=O)[C@H](CC(C)C)NC(=O)[C@H](Cc1ccccc1)NC(=O)[C@H](C)NC(=O)[C@H](C)NC(=O)[C@H](CC(C)C)NC(=O)[C@H](CCCNC(=N)N)NC(=O)[C@H](CCC(N)=O)NC(=O)[C@@H](NC(=O)[C@H](C)NC(=O)[C@@H]1CSSC[C@H](NC(=O)[C@@H](N)CCCCNC(=O)CC[C@H](NC(=O)CCCCCCCCCCCCCCCCCCC(=O)O)C(=O)O)C(=O)N[C@@H](CC(N)=O)C(=O)N[C@@H]([C@@H](C)O)C(=O)N[C@@H](C)C(=O)N[C@@H]([C@@H](C)O)C(=O)N1)[C@@H](C)O)C(=O)N1CCC[C@H]1C(=O)N[C@@H](CO)C(=O)N[C@@H](CO)C(=O)N[C@H](C(=O)N[C@@H](CC(N)=O)C(=O)N[C@H](C(=O)NCC(=O)N[C@@H](Cc1c[nH]cn1)C(=O)N[C@@H](CC(N)=O)C(=O)N[C@H](C(=O)N[C@@H](Cc1ccc(O)cc1)C(N)=O)[C@@H](C)O)C(C)C)[C@@H](C)O, also called compound 93) | 118 | 1.15 | 9.7
